We go through one molecule from US20260158070A1 (UNIVERSITY OF MARYLAND BALTIMORE, published 2026).

Experiment [1] concerns the target T1, wild-type K-Ras 4B (in RASless MEFs) (Homo sapiens (Human), UniProt P01116-2 1-185).
T1 construct: Expressed by lentiviral transduction in RASless mouse embryonic fibroblasts; stained on live cells by flow cytometry, in lysates by western blot; also called MEF-K-Ras-4B; 4B splice variant of K-Ras
Description: flow cytometry, surface staining of RASless MEFs, 10 µg/ml. Background: A flow cytometer gives signals particle by particle.

In experiment [2] the target is T2, wild-type K-Ras 4A (in RASless MEFs) (Homo sapiens (Human), UniProt P01116 1-186).
T2 construct: Expressed by lentiviral transduction in RASless mouse embryonic fibroblasts; stained on live cells by flow cytometry, in lysates by western blot; also called MEF-K-Ras-4A
Described as above.

B1: Human Anti-K-Ras Antibody 1 (antibody, human IgG1, lambda, N297G, V domains shown)
VH: EVQLVQSGGGVVQPGRSLRLSCAASGFTSRHPGMHWVRQAPGKGLEWVAVISHDGSKKYYADSVKGRFTISRDNSKNTLFVQLSSLRPEDTAVYYCATSLYSSMDLWGQGTTVTVSS
VL: QSVVTQPPSVSAAPGQKVTISCSGSNSNIGKNYVSWFQQVPGTAPKLLIFEDNQRPSGIPDRFSASKSGTSASLAISGLQSEDEADYYCAAWDDKFGVHWVFGGGTKLTVLG
notes: also called human K-Ras antibody 1; Human K-RAS Antibody 1
As for B1, the binding result in experiment [1] and in experiment [2] was “binds” throughout.
